The text below walks through data of patent US9658208B2, “Methods and G proteins for screening and identifying ligands of G protein-coupled receptors” (Fred Hutchinson Cancer Research Center, priority 2011, dated 2017).

The assay addresses T1, sweet receptor heterodimer (T1R2/T1R3) (Mus musculus, UniProt Q925D8+Q925I4).
T1 construct: expressed in transfected cells; host or cells: HEK-293
T1 sequence (Q925I4 20-843): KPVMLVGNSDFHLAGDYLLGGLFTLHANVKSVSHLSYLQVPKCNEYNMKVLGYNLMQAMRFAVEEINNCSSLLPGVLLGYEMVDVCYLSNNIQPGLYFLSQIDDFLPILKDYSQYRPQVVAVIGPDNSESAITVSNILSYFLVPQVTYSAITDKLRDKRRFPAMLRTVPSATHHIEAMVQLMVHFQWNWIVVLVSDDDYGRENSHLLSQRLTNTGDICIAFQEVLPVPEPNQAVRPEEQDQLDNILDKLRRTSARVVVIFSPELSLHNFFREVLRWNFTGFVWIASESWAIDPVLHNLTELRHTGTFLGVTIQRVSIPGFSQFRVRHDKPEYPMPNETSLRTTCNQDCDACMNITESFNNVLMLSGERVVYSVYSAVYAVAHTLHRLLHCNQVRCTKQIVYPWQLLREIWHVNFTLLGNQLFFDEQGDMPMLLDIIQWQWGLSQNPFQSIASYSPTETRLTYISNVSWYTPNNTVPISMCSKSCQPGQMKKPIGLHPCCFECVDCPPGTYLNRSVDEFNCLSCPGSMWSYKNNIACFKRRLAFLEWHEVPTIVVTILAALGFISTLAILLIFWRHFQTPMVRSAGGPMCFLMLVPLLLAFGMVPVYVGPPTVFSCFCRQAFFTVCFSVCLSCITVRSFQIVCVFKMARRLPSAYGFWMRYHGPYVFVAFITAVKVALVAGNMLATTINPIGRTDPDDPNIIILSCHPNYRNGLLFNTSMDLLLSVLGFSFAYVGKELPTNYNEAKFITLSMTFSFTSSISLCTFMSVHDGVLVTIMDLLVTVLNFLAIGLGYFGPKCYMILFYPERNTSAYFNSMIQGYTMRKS
T1 sequence (Q925D8 21-858): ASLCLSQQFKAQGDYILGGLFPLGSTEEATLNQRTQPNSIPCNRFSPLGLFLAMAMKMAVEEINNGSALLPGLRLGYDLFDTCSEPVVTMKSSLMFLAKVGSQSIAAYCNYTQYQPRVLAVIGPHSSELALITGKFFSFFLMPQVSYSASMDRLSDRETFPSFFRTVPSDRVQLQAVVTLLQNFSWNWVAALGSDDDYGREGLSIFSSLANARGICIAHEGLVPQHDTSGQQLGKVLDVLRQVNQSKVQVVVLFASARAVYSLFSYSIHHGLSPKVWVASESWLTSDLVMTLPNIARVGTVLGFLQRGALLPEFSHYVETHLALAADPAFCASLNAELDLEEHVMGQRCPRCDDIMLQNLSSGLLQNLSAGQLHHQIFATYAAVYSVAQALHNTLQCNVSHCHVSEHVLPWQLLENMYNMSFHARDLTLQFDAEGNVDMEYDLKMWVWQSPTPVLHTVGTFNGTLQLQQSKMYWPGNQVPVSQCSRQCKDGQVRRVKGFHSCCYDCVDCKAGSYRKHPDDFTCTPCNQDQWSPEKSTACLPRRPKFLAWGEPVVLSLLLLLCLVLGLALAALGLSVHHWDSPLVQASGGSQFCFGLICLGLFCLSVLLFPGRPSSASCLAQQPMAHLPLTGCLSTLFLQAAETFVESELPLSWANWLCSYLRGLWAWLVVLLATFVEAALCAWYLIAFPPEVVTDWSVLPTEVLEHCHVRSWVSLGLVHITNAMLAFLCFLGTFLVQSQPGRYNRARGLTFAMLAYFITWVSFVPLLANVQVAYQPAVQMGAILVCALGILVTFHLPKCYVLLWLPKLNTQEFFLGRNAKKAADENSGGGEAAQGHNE
As to the kind of experiment: CRE-SEAP reporter gene assay, coupling with sweet receptor. To be noted: HEK-293 cells cotransfected with T1R2 and T1R3; 5 mM saccharin. Format: cell-based. The source says: The GPCRs examined were those that couple with Gαi/Gαo subunits (serotonin 1b, neuropeptide Y1, leukotriene B4, and dopamine D4), Gαq (GNRH, UDP, and calcium-sensing receptors), and the orphan mammalian sweet taste receptor complex (T1R2 and T1R3) with unknown coupling preference. The Gαs-based chimeric G proteins examined in this example were Gαs-Gαi-5, Gαs-Gαt-13 (SEQ ID NO: 3), Gαs-Gαo-13 (SEQ ID NO: 4), Gαs-Gαi-13 (SEQ ID NO: 5), Gαs-Gαz-6 (SEQ ID NO: 18), Gαs-Gα15-13 (SEQ ID NO: 7), Gαs-Gαk-5 (SEQ ID NO: 2), and Gαs-Gαq-13 (SEQ ID NO: 8). The chimeric G protein constructs were prepared as described herein. For the coupling assay, HEK-293 cells were cotransfected with each of the Gαs-based chimeric G protein constructs of interest together with the CRE-SEAP reporter gene construct and a cDNA encoding the GPCR to be tested. The transfected cells were cultured in the presence or absence of a GPCR ligand and then assayed for SEAP activity.
Also tested was whether the chimeric G proteins disclosed herein can be used to detect the activation of GPCRs whose G protein coupling preference is unknown, as is the case with orphan GPCRs. […]
Following transfection, the cells were maintained for 48 hours in 200 ul serum free media containing GPCR ligand. […] Fluorescence was then measured using a CytoFluor 4000 multi well plate reader (Applied Biosystems).
In general terms: In a reporter assay the amount or activity of a reporter protein is the signal.

B1: Gαs-Gαt-13: Gαs-based chimeric G protein, final 13 C-terminal amino acids substituted with those of Gαt (protein)
chain: MGCLGNSKTEDQRNEEKAQREANKKIEKQLQKDKQVYRATHRLLLLGAGESGKSTIVKQMRILHVNGFNGEGGEEDVPDYASNSDGEKATKVQDIKNNLKEAIETIVAAMSNLVPPVELANPENQFRVDYILSVMNVPNFDFPPEFYEHAKALWEDEGVRACYERSNEYQLIDCAQYFLDKIDVIKQADYVPSDQDLLRCRVLTSGIFETKFQVDKVNFHMFDVGGQRDERRKWIQCFNDVTAIIFVVASSSYNMVIREDNQTNRLQEALNLFKSIWNNRWLRTISVILFLNKQDLLAEKVLAGKSKIEDYFPEFARYTTPEDATPEPGEDPRVTRAKYFIRDEFLRISTASGDGRHYCYPHFTCAVDTENIRRVFNDCRDIIIKENLKDCGLF
modifications: Chimeric protein
notes: Gαs-based chimeric G protein, final 13 C-terminal amino acids substituted with those of Gαt
B1: the “increase in SEAP activity” value is “about two”.
